Measured values: article PMC5528877

B1: V-set and transmembrane domain-containing protein 5 (Vstm5): N43,87,101,108A (protein)
parent chain: MRPLRCGERTQGIPLGLLAFWVTAARCLQSQGVSLYIPQSAINATVQQDILLSVDYICHGVPTIEWKYTPNWGVQRIVEWKPGTPANVSQSHRDRVCTFDNGSIQLFNVSVKDSGYYIVTVTEHPGSSQSGTILLRVSEIRYEDLHFVAVFFALLAAVAVVLISLMWVCNQCAYKFQRKRRYKLKESTTEEIEMKEVEC
B2: V-set and transmembrane domain-containing protein 5 (Vstm5): tunicamycin (protein)
parent chain: B1 parent chain
B3: V-set and transmembrane domain-containing protein 5 (Vstm5): N43A (protein)
parent chain: B1 parent chain
B4: V-set and transmembrane domain-containing protein 5 (Vstm5): N101A (protein)
parent chain: B1 parent chain
B5: V-set and transmembrane domain-containing protein 5 (Vstm5): N87,101,108A (protein)
parent chain: B1 parent chain
B6: V-set and transmembrane domain-containing protein 5 (Vstm5): N101,108A (protein)
parent chain: B1 parent chain
B7: V-set and transmembrane domain-containing protein 5 (Vstm5): N108A (protein)
parent chain: B1 parent chain
B8: V-set and transmembrane domain-containing protein 5 (Vstm5): N87A (protein)
parent chain: B1 parent chain
B9: V-set and transmembrane domain-containing protein 5 (Vstm5): N43,87A (protein)
parent chain: B1 parent chain

Key:
[1] = western blot of total lysate, COS-7; conditions: glycan lost; control: WT Vstm5
[2] = immunofluorescence with ER marker PDI, COS-7; conditions: glycan lost
[3] = surface biotinylation, pull-down, western, COS-7; conditions: glycan lost; control: WT Vstm5

Protein | expression_or_secretion [1] | localisation_or_trafficking ([2]; control: WT Vstm5) | localisation_or_trafficking, fold_change [3] | localisation_or_trafficking ([2]; control: DMSO-treated)
B1 | no change | changes | decreases | 
B2 |  |  |  | changes
B3 | no change |  | decreases | 
B4 | no change |  | decreases | 
B5 | no change |  | decreases | 
B6 | no change |  | no change | 
B7 | no change |  | increases | 
B8 | no change |  | increases | 
B9 | no change |  | decreases | 
